Measurements as given in patent US7067277B1, “Chimeric G proteins and uses thereof” (H. Lundbeck A/S, priority 1999, dated 2006).

T1: h α2A adr (Homo sapiens, UniProt P08913)
T1 construct: expressed in transfected cells; host or cells: COS-7
T1 sequence (P08913 1-465): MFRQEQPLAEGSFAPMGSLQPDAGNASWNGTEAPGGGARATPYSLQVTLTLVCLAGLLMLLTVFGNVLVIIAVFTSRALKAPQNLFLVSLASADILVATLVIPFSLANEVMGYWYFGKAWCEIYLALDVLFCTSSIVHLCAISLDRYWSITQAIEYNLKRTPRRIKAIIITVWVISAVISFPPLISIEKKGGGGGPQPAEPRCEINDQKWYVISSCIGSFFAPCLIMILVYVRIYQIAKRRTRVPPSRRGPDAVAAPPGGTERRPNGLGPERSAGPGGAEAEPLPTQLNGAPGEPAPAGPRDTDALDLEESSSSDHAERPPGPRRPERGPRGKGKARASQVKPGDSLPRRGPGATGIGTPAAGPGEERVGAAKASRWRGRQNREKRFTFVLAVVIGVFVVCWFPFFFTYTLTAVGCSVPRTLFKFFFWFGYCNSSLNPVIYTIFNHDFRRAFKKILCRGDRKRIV

T2: Rat Y1 (Rattus norvegicus, UniProt P21555)
T2 construct: linearized plasmids or PCR products containing the complete coding region of the genes; expressed in transfected cells; host or cells: Xenopus laevis oocytes (receptor cRNA injected)
T2 sequence (P21555 1-382): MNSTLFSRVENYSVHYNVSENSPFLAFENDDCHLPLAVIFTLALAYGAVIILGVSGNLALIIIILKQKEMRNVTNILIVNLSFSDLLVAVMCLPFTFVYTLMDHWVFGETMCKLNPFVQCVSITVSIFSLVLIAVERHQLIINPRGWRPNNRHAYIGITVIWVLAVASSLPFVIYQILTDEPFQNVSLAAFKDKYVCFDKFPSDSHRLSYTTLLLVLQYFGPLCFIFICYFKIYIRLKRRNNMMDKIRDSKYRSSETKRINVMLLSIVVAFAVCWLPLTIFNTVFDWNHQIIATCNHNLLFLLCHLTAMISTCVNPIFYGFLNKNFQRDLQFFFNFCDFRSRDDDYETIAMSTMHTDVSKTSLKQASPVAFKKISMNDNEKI


What was measured:
Type in all cases: cell-based
h β2 adr = h β2 adr (Homo sapiens, UniProt P07550); test: Calcium mobilization (FLIPR, Fluo-3) in transfected COS-7 cells; settings: h β2 adr + chimera in COS-7; agonist NE, max 100 μM
Experimental: (§1) COS-7 cells were cultured in 225 cm^2 flasks in Dulbecco's Modified Eagle Medium (DMEM) with supplements (10% bovine calf serum, 4 mM glutamine, 100 units/ml penicillin and 100 μg/ml streptomycin) at 37° C., 5% CO2. Stock plates of COS-7 cells were trypsinized and split 1:6 every 3–4 days.
(§2) GPCR and chimeric G protein cDNAs were transiently transfected into COS-7 cells in 150 cm^2 flasks by the DEAE-dextran method (Cullen, 1987), using a total of 20 μg of DNA/˜7×10^6 cells. For evaluating the function of a single chimeric G protein, the standard cDNA transfection ratio was 1:1 (10 μg GPCR cDNA and 10 μg chimeric G protein cDNA). For evaluating the function of a mixture of chimeric G proteins, the standard cDNA transfection ratio was 8:1:1 (16 μg GPCR cDNA, 2 μg Gαq/z cDNA, 2 μg Gαq/s cDNA).
(§3) Twenty four hours after transient transfection, COS-7 cells were seeded into 96-well black wall microtiter plates coated with poly-D-lysine for assay the following day. Just prior to assay, culture medium was aspirated and cells were dye-loaded with 4 μM Fluo-3/0.01% pluronic acid in assay buffer composed of Hank's Balanced Salt Solution (138 mM NaCl, 5 mM KCl, 1.3 mM CaCl2, 0.5 mM MgCl2, 0.4 mM MgSO4, 0.3 mM KH2PO4, 0.3 mM Na2HPO4, 5.6 mM glucose) plus 20 mM HEPES (pH 7.4), 0.1% BSA and 2.5 mM probenicid (100 μl/well) for 1 hour in 5% CO2 at 37° C. After excess dye was discarded, cells were washed in assay buffer and layered with a final volume equal to 100 μl/well. Basal fluorescence was monitored in a fluorometric imaging plate reader (FLIPR™, Molecular Devices) with an excitation wavelength of 488 nm and an emission range of 500 to 560 nm. Laser excitation energy was adjusted so that basal fluorescence readings were approximately 10,000 relative fluorescent units. Cells were stimulated with agonists diluted in assay buffer (50 μl), and relative fluorescent units were measured at defined intervals (exposure=0.4 sec) over a 3 min period at room temperature. Maximum change in fluorescence was calculated for each well. Concentration-response curves derived from the maximum change in fluorescence were analyzed by nonlinear regression (Hill equation).

h D2 = molecular target: T3, h D2 (Homo sapiens, UniProt P14416); test: as above; settings: h D2 + chimera in COS-7; agonist DA, max 100 μM
T3 construct: expressed in transfected cells; host or cells: COS-7
Experimental: as §1, §2, §3

h α2A adr = molecular target: T1, h α2A adr; test: as above; settings: h α2A adr + chimera in COS-7; agonist NE, max 100 μM
Experimental: as §1, §2, §3

[1] = system: panel of 36 different GPCRs, including Gαi/i-, Gαs-, and Gαq-coupling receptors; test: Detection rate in COS-7 calcium mobilization over a GPCR panel; settings: COS-7, single chimera co-transfected with each GPCR
Experimental: as §1
GPCR and chimeric G protein cDNAs were transiently transfected into COS-7 cells in 150 cm^2 flasks by the DEAE-dextran method (Cullen, 1987), using a total of 20 μg of DNA/˜7×10^6 cells. For evaluating the function of a single chimeric G protein, the standard cDNA transfection ratio was 1:1 (10 μg GPCR cDNA and 10 μg chimeric G protein cDNA). […]
Twenty four hours after transient transfection, COS-7 cells were seeded into 96-well black wall microtiter plates coated with poly-D-lysine for assay the following day. […] Basal fluorescence was monitored in a fluorometric imaging plate reader (FLIPR™, Molecular Devices) with an excitation wavelength of 488 nm and an emission range of 500 to 560 nm. Laser excitation energy was adjusted so that basal fluorescence readings were approximately 10,000 relative fluorescent units. Cells were stimulated with agonists diluted in assay buffer (50 μl), and relative fluorescent units were measured at defined intervals (exposure=0.4 sec) over a 3 min period at room temperature. Maximum change in fluorescence was calculated for each well. […]

Rat Y1 = molecular target: T2, Rat Y1; test: Cl- current recording in Xenopus oocytes expressing GPCR and chimeric G protein; settings: Xenopus oocytes expressing Rat Y1 and chimera; mean ± s.e.m
Experimental: (§4) Oocytes were harvested from Xenopus laevis and injected with mRNA transcripts as previously described (Quick and Lester, 1994; Smith et al., 1997). Receptor and chimeric G protein α subunit RNA transcripts were synthesized using the T7 polymerase (“Message Machine,” Ambion) from linearized plasmids or PCR products containing the complete coding region of the genes. Oocytes were injected with 5–25 ng synthetic receptor RNA and incubated for 3–8 days at 17 degrees. Three to eight hours prior to recording, oocytes were injected with 500 pg chimeric Gα subunit mRNA. Dual electrode voltage clamp (Axon Instruments Inc.) was performed using 3 M KCl-filled glass microelectrodes having resistances of 1–2 MOhm. Unless otherwise specified, oocytes were voltage clamped at a holding potential of −80 mV. During recordings, oocytes were bathed in continuously flowing (1–3 ml/min) medium containing 96 mM NaCl, 2 mM KCl, 1.8 mM CaCl2, 1 mM MgCl2, and 5 mM HEPES, pH 7.5 (ND96). Drugs were applied by local perfusion from a 10 μl glass capillary tube fixed at a distance of 0.5 mm from the oocyte. Experiments were carried out at room temperature. All values are expressed as mean±standard error of the mean.

Rabbit 5HT1D = molecular target: T4, Rabbit 5HT1D (Oryctolagus cuniculus, UniProt P49145); test: as above; settings: Xenopus oocytes expressing Rabbit 5HT1D and chimera; mean ± s.e.m
T4 construct: linearized plasmids or PCR products containing the complete coding region of the genes; expressed in transfected cells; host or cells: Xenopus laevis oocytes (receptor cRNA injected)
Experimental: as §4

Human NPFF1 = molecular target: T5, Human NPFF1 (Homo sapiens, UniProt Q9GZQ6); test: as above; settings: Xenopus oocytes expressing Human NPFF1 and chimera, 1 μM NPFF, mean ± s.e.m
T5 construct: linearized plasmids or PCR products containing the complete coding region of the genes; expressed in transfected cells; host or cells: Xenopus laevis oocytes (receptor cRNA injected)
Experimental: as §4

T5 sequence (Q9GZQ6 whole entry): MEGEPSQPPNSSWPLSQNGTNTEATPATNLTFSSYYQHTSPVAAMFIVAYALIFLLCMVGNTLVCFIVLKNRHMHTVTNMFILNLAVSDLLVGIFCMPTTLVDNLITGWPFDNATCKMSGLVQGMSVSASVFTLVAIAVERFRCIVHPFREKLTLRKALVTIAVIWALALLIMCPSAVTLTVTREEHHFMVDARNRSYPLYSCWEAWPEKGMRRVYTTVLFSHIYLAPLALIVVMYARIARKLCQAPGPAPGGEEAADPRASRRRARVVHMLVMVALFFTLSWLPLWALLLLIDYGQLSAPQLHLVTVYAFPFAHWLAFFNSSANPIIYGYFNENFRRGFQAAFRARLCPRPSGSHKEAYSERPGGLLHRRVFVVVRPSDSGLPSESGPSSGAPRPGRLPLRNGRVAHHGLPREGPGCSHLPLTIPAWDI
T3 sequence (P14416 whole entry): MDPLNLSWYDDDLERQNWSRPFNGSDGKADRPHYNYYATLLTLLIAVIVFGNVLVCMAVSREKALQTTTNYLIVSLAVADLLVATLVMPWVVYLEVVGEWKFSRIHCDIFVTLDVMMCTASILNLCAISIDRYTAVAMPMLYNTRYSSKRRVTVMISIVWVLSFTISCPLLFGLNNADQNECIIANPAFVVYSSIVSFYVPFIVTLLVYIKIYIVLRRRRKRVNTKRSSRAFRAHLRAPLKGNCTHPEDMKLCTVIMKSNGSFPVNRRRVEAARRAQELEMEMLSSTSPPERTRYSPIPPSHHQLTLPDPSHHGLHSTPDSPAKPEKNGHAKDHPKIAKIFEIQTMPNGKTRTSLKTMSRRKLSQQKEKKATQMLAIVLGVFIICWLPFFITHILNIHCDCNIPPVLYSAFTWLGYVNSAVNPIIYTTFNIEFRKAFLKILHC
T4 sequence (P49145 whole entry): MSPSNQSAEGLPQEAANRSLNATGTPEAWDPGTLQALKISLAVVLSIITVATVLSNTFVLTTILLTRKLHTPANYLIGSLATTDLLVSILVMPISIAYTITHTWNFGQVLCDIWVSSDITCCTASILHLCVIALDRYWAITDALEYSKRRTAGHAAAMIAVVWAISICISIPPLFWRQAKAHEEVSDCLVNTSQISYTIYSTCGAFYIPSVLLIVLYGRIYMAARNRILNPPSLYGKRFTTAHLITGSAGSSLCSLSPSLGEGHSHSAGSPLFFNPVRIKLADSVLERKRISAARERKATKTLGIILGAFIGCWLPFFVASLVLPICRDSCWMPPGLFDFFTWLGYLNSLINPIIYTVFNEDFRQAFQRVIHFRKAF

| Molecule | MAXIMAL SIGNAL (FLUORESCENCE UNITS) (h β2 adr) [fluorescence units] | MAXIMAL SIGNAL (FLUORESCENCE UNITS) (h D2) [fluorescence units] | MAXIMAL SIGNAL (FLUORESCENCE UNITS) (h α2A adr) [fluorescence units] | receptors generating positive signals (>500 fluorescence units) / receptors tested [1] | Response amplitudes (nA) in oocytes (Rat Y1) [nA] | Response amplitudes (nA) in oocytes (Rabbit 5HT1D) [nA] | Response amplitudes (nA) in oocytes (Human NPFF1) [nA] | Response amplitudes (nA) in oocytes (Human NPFF1; listed as CGαq/z5) [nA] |
| --- | --- | --- | --- | --- | --- | --- | --- | --- |
| cGαq/z5: chimeric Gα subunit: C-terminal final 5 amino acids of C. elegans Gαq replaced with those of hGαz (SEQ ID NO: 1) (protein, C. elegans) MACCLSEEAREQKRINQEIEKQLQRDKRNARRELKLLLLGTGESGKSTFIKQMRIIHGQGYSEEDKRAHIRLVYQNVFMAIQSMIRAMDTLDIKFGNESEELQEKAAVVREVDFESVTSFEEPYVSYIKELWEDSGIQECYDRRREYQLTDSAKYYLSDLRRLAVPDYLPTEQDILRVRVPTTGIIEYPFDLEQIIFRMVDVGGQRSERRKWIHCFENVTSIMFLVALSEYDQVLVECDNENRMEESKALFRTIITYPWFTNSSVILFLNKKDLLEEKILYSHLADYFPEYDGPPRDPIAAREFILKMFVDLNPDADKIIYSHFTCATDTENIRFVFAAVKDTILQHNLKYIGLC | 1842 | 7615 | 7575 | 28/36 | 1549 ± 168 | 150 ± 105 | 1258±159 | 1258 ± 159 |
| cGαq/z9: C. elegans Gαq with Gαz portion of the C-terminal tail extended to 9 amino acids (SEQ ID NO: 2) (protein, C. elegans) MACCLSEEAREQKRINQEIEKQLQRDKRNARRELKLLLLGTGESGKSTFIKQMRIIHGQGYSEEDKRAHIRLVYQNVFMAIQSMIRAMDTLDIKFGNESEELQEKAAVVREVDFESVTSFEEPYVSYIKELWEDSGIQECYDRRREYQLTDSAKYYLSDLRRLAVPDYLPTEQDILRVRVPTTGIIEYPFDLEQIIFRMVDVGGQRSERRKWIHCFENVTSIMFLVALSEYDQVLVECDNENRMEESKALFRTIITYPWFTNSSVILFLNKKDLLEEKILYSHLADYFPEYDGPPRDPIAAREFILKMFVDLNPDADKIIYSHFTCATDTENIRFVFAAVKDTILQNNLKYIGLC | 1697 | 4305 | 3040 | 29/36 | 300 ± 177 | 34 ± 12 | 1449 ± 398 |  |
